Experimental data taken from doi:10.1101/2025.10.04.680434.

Target: human 40S ribosomal subunit (human) (UniProt P62269)
Assay: cryo-EM structure

other: 40%
Substance: human eIF3 (from UniProt P55884 1-814; Q99613 1-913; O15371 1-548; O75821 1-320; Q13347 1-325) (complex)
